Molecular target: human CD20 (entire coding sequence, expressed on the cell surface after LTR-CD20-LTR retroviral transduction) (human) (UniProt P11836)
Assay: cell-based or functional assay

Chain of UniProt P11836 (P11836 whole entry): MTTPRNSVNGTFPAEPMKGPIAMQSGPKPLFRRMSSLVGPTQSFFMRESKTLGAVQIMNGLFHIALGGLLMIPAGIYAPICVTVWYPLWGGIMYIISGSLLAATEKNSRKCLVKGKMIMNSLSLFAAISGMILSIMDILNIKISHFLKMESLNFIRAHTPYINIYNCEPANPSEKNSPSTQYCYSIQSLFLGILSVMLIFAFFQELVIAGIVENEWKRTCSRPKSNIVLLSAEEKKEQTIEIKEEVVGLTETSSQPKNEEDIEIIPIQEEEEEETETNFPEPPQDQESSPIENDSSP

% specific lysis, Rituximab alone (Donor 1, 30% CD3/CD20+ lymphocytes): 0%
% specific lysis, Rituximab alone (Donor 2, 23% CD3/CD20+ lymphocytes): 0%
% specific lysis, Rituximab alone (Donor 3, 15% CD3/CD20+ lymphocytes): 0%
% specific lysis, Rituximab plus complement (Donor 1, 30% CD3/CD20+ lymphocytes): 33%
% specific lysis, Rituximab plus complement (Donor 2, 23% CD3/CD20+ lymphocytes): 35%
% specific lysis, Rituximab plus complement (Donor 3, 15% CD3/CD20+ lymphocytes): 18%
Substance: Rituximab (Roche), humanised monoclonal antibody against CD20
death of the CD3/CD20+ cells after one hour exposure (complement-dependent cytotoxicity): 90%

From US20070014785A1
